Measured values as given in PMC3572051, “The Budding Yeast Cdc48^Shp1 Complex Promotes Cell Cycle Progression by Positive Regulation of Protein Phosphatase 1 (Glc7)” (PLoS ONE, 2013).

Molecular target: T1, Shp1^3HA (S. cerevisiae, UniProt P34223 1-423)
T1 construct: Shp1 (Ubx1), S. cerevisiae; source: S. cerevisiae DF5, chromosomal fusion SHP1^3HA::klTRP1, endogenous expression level, in lysate
T1 sequence (looked up): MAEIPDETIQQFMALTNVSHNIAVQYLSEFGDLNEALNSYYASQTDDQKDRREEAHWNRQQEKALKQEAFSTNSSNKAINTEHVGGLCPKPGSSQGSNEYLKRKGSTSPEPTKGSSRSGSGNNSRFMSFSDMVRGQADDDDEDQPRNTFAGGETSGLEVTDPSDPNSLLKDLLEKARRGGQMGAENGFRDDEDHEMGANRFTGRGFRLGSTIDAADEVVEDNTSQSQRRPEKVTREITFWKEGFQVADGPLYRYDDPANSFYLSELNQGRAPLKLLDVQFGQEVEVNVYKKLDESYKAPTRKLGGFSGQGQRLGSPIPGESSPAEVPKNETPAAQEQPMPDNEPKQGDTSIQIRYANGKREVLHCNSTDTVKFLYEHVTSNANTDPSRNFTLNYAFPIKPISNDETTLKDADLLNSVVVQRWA
Experiment: co-IP; yeast lysates; immunoprecipitation with pre-coupled anti-HA antibody (overnight, 4°C), IP buffer 50 mM Tris/HCl pH 7.5, 100 mM KCl, 5 mM MgCl2, NP-40, 10% glycerol; Western blot; for Glc8^3HA lysates of asynchronous or α-factor-arrested wild-type and shp1-7 cells
Settings: partners not purified

fold difference of the Glc7 signal in the IP lane (relative to the heavy chain signal) against the negative control: > 8 fold
B1: Glc7^3myc (enzyme, S. cerevisiae, UniProt P32598 1-312, looked up)
chain: MDSQPVDVDNIIDRLLEVRGSKPGQQVDLEENEIRYLCSKARSIFIKQPILLELEAPIKICGDIHGQYYDLLRLFEYGGFPPESNYLFLGDYVDRGKQSLETICLLLAYKIKYPENFFILRGNHECASINRIYGFYDECKRRYNIKLWKTFTDCFNCLPIAAIIDEKIFCMHGGLSPDLNSMEQIRRVMRPTDIPDVGLLCDLLWSDPDKDIVGWSENDRGVSFTFGPDVVNRFLQKQDMELICRAHQVVEDGYEFFSKRQLVTLFSAPNYCGEFDNAGAMMSVDESLLCSFQILKPAQKSLPRQAGGRKKK
notes: Glc7, catalytic subunit of protein phosphatase 1, S. cerevisiae; carboxyl-terminally tagged at its authentic chromosomal locus; also called PP1 catalytic subunit; source: S. cerevisiae DF5, expressed from the chromosomal GLC7 locus as sole source of Glc7, in lysate; not shown: 3myc, C-terminal, kept
